T1: His-MBP-Cdc5 T238D (S. cerevisiae, UniProt P32562 1-705, T238D)
T1 sequence (looked up): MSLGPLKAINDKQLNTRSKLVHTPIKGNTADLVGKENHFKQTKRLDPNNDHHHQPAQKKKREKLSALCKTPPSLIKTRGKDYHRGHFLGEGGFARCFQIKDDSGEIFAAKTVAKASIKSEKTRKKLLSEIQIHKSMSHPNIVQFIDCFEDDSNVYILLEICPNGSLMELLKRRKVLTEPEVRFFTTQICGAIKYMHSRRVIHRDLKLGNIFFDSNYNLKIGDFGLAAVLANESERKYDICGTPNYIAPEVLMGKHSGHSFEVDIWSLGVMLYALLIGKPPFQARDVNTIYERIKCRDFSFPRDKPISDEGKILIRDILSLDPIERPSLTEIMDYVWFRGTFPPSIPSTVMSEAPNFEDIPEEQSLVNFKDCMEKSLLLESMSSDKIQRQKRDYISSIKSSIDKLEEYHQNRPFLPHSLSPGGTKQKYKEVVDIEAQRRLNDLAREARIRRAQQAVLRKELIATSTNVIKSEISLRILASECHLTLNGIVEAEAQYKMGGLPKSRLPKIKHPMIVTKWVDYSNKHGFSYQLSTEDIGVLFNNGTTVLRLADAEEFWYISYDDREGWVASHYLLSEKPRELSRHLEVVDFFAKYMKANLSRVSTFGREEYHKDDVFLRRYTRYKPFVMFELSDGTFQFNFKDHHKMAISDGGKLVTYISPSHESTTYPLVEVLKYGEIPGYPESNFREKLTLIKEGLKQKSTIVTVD

B1: Exo1-Flag (recombinant, untreated) (natural protein, yeast, UniProt P39875 1-702, looked up)
chain: MGIQGLLPQLKPIQNPVSLRRYEGEVLAIDGYAWLHRAACSCAYELAMGKPTDKYLQFFIKRFSLLKTFKVEPYLVFDGDAIPVKKSTESKRRDKRKENKAIAERLWACGEKKNAMDYFQKCVDITPEMAKCIICYCKLNGIRYIVAPFEADSQMVYLEQKNIVQGIISEDSDLLVFGCRRLITKLNDYGECLEICRDNFIKLPKKFPLGSLTNEEIITMVCLSGCDYTNGIPKVGLITAMKLVRRFNTIERIILSIQREGKLMIPDTYINEYEAAVLAFQFQRVFCPIRKKIVSLNEIPLYLKDTESKRKRLYACIGFVIHRETQKKQIVHFDDDIDHHLHLKIAQGDLNPYDFHQPLANREHKLQLASKSNIEFGKTNTTNSEAKVKPIESFFQKMTKLDHNPKVANNIHSLRQAEDKLTMAIKRRKLSNANVVQETLKDTRSKFFNKPSMTVVENFKEKGDSIQDFKEDTNSQSLEEPVSESQLSTQIPSSFITTNLEDDDNLSEEVSEVVSDIEEDRKNSEGKTIGNEIYNTDDDGDGDTSEDYSETAESRVPTSSTTSFPGSSQRSISGCTKVLQKFRYSSSFSGVNANRQPLFPRHVNQKSRGMVYVNQNRDDDCDDNDGKNQITQRPSLRKSLIGARSQRIVIDMKSVDERKSFNSSPILHEESKKRDIETTKSSQARPAVRSISLLSQFVYKGK
B2: Exo1-Flag (recombinant, treated with CDK1-cyclin B) (natural protein, yeast, UniProt P39875 1-702, looked up)
chain: B1 chain
modifications: phosphorylated in vitro with CDK1-cyclin B; sites not stated
B3: Exo1-Flag (recombinant, treated with lambda phosphatase) (natural protein, yeast, UniProt P39875 1-702, looked up)
chain: B1 chain
modifications: dephosphorylated with lambda phosphatase

Biological target: T1, His-MBP-Cdc5 T238D
Test: pull-down

Binding result, binds:
B1, B2, B3

Source: doi:10.1101/2019.12.16.876623 (bioRxiv, 2019)
